Results from patent publication US7262274.

Target: human RANK, full length (expressed in or on cells) (human) (UniProt Q9Y6Q6)
Assay: cell-based or functional assay

Sequence of UniProt Q9Y6Q6 (Q9Y6Q6 30-616 limits assumed): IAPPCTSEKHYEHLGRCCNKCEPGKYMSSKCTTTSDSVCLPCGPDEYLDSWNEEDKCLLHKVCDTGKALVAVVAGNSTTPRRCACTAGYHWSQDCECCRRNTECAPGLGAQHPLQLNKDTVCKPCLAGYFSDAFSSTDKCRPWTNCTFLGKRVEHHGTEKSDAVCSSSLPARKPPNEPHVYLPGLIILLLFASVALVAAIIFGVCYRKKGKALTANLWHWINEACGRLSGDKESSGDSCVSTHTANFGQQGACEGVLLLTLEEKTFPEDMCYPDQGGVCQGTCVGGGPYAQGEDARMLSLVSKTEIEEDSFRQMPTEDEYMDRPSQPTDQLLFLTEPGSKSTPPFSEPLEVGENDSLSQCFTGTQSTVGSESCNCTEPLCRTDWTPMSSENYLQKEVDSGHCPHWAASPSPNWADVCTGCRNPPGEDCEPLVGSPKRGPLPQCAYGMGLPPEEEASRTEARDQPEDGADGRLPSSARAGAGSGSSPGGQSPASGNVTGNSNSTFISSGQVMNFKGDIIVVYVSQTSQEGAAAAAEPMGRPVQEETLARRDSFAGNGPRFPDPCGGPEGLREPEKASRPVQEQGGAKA

allo-stimulatory capacity of CD1a+ DC in a mixed lymphocyte reaction (MLR): > 10 fold
Substance: RANKL (species and construct not stated at the place of use) (ligand)
